Laboratory results reported in patent publication US11994512B2, “Single-cell genomic methods to generate ex vivo cell systems that recapitulate in vivo biology with improved fidelity” (Massachusetts Institute of Technology, priority 2018, dated 2024).

System: intracellular proteome of ENR+CD and ENR organoids
Test: LC-MS/MS TMT proteomics of ENR+CD versus ENR organoids
Assay type: cell-based, C57BL/6 mice
Conditions: for Average logFC / M1-1 Log2 Median Normalized / M1-2 Log2 Median Normalized / M2-1 Log2 Median Normalized / M2-2 Log2 Median Normalized: protein abundance, ENR+CD versus ENR organoids; for Average logFC: aggregate of the four sample pairs; for M1-1 Log2 Median Normalized: replicate M1-1; for M1-1 Log2 Median Normalized / M1-2 Log2 Median Normalized / M2-1 Log2 Median Normalized / M2-2 Log2 Median Normalized: log2 ratio; for M1-2 Log2 Median Normalized: replicate M1-2; for M2-1 Log2 Median Normalized: replicate M2-1; for M2-2 Log2 Median Normalized: replicate M2-2; for change: up = enriched in ENR+CD, down = enriched in ENR, FDR<0.05 and log fold change cut-off

B1: Q03157 (protein, UniProt Q03157 1-654, looked up)
chain: MGPTSPAARGQGRRWRPPPLPLLLPLSLLLLRAQLAVGNLAVGSPSAAEAPGSAQVAGLCGRLTLHRDLRTGRWEPDPQRSRRCLLDPQRVLEYCRQMYPELHIARVEQAAQAIPMERWCGGTRSGRCAHPHHEVVPFHCLPGEFVSEALLVPEGCRFLHQERMDQCESSTRRHQEAQEACSSQGLILHGSGMLLPCGSDRFRGVEYVCCPPPATPNPSGMAAGDPSTRSWPLGGRAEGGEDEEEVESFPQPVDDYFVEPPQAEEEEEEEEERAPPPSSHTPVMVSRVTPTPRPTDGVDVYFGMPGEIGEHEGFLRAKMDLEERRMRQINEVMREWAMADSQSKNLPKADRQALNEHFQSILQTLEEQVSGERQRLVETHATRVIALINDQRRAALEGFLAALQGDPPQAERVLMALRRYLRAEQKEQRHTLRHYQHVAAVDPEKAQQMRFQVQTHLQVIEERMNQSLGLLDQNPHLAQELRPQIQELLLAEHLGPSELDASVPGSSSEDKGSLQPPESKDDPPVTLPKGSTDQESSSSGREKLTPLEQYEQKVNASAPRGFPFHSSDIQRDELAPSGTGVSREALSGLLIMGAGGGSLIVLSLLLLRKKKPYGTISHGVVEVDPMLTLEEQQLRELQRHGYENPTYRFLEERP
modifications: full-length
Average logFC: 1.178
M1-1 Log2 Median Normalized: 1.177
M1-2 Log2 Median Normalized: 0.671
M2-1 Log2 Median Normalized: 1.2695
M2-2 Log2 Median Normalized: 1.559
change: up

B2: P81117 (protein, UniProt P81117 1-420, looked up)
chain: MRWRIIQVQYCFLLVPCMLTALEAVPIDVDKTKVHNTEPVENARIEPPDTGLYYDEYLKQVIEVLETDPHFREKLQKADIEEIRSGRLSQELDLVSHKVRTRLDELKRQEVGRLRMLIKAKLDALQDTGMNHHLLLKQFEHLNHQNPNTFESRDLDMLIKAATADLEQYDRTRHEEFKKYEMMKEHERREYLKTLSEEKRKEEESKFEEMKRKHEDHPKVNHPGSKDQLKEVWEETDGLDPNDFDPKTFFKLHDVNNDGFLDEQELEALFTRELEKVYNPQNAEDDMIEMEEERLRMREHVMSEIDNNKDRLVTLEEFLRATEKKEFLEPDSWETLDQQQLFTEDELKEYESIIAIQENELKKRAEELQKQKEDLQRQHDHLEAQKQEYHQAVQHLEQKKLQQGIAPSGPAGELKFEPHT
modifications: full-length
Average logFC: 1.372
M1-1 Log2 Median Normalized: 1.736
M1-2 Log2 Median Normalized: 1.385
M2-1 Log2 Median Normalized: 1.0905
M2-2 Log2 Median Normalized: 1.276
change: up

B3: P97290 (protein, UniProt P97290 1-504, looked up)
chain: MASRLTPLTLLLLLLAGDRAFSDPEATSHSTQDPLEAQAKSRESFPERDDSWSPPEPTVLPSTWPTTSVAITITNDTMGKVANESFSQHSQPAAQLPTDSPGQPPLNSSSQPSTASDLPTQATTEPFCPEPLAQCSDSDRDSSEAKLSEALTDFSVKLYHAFSATKMAKTNMAFSPFSIASLLTQVLLGAGDSTKSNLESILSYPKDFACVHQALKGFSSKGVTSVSQIFHSPDLAIRDTYVNASQSLYGSSPRVLGPDSAANLELINTWVAENTNHKIRKLLDSLPSDTCLVLLNAVYLSAKWKITFEPKKMMAPFFYKNSMIKVPMMSSVKYPVAQFDDHTLKAKVGQLQLSHNLSFVIVVPVFPKHQLKDVEKALNPTVFKAIMKKLELSKFLPTYLTMPHIKVKSSQDMLSVMEKLEFFDFTYDLNLCGLTEDPDLQVSAMKHETVLELTESGVEAAAASAISFGRSLPIFEVQRPFLFLLWDQQHRFPVFMGRVYDPRG
modifications: full-length
Average logFC: 1.245
M1-1 Log2 Median Normalized: 1.362
M1-2 Log2 Median Normalized: 1.123
M2-1 Log2 Median Normalized: 1.2185
M2-2 Log2 Median Normalized: 1.278
change: up

B4: P97449 (protein, UniProt P97449 1-966, looked up)
chain: MAKGFYISKTLGILGILLGVAAVCTIIALSVVYAQEKNRNAENSATAPTLPGSTSATTATTTPAVDESKPWNQYRLPKTLIPDSYRVILRPYLTPNNQGLYIFQGNSTVRFTCNQTTDVIIIHSKKLNYTLKGNHRVVLRTLDGTPAPNIDKTELVERTEYLVVHLQGSLVEGRQYEMDSQFQGELADDLAGFYRSEYMEGDVKKVVATTQMQAADARKSFPCFDEPAMKAMFNITLIYPNNLIALSNMLPKESKPYPEDPSCTMTEFHSTPKMSTYLLAYIVSEFKNISSVSANGVQIGIWARPSAIDEGQGDYALNVTGPILNFFAQHYNTSYPLPKSDQIALPDFNAGAMENWGLVTYRESSLVFDSQSSSISNKERVVTVIAHELAHQWFGNLVTVAWWNDLWLNEGFASYVEYLGADYAEPTWNLKDLMVLNDVYRVMAVDALASSHPLSSPADEIKTPDQIMELFDSITYSKGASVIRMLSSFLTEDLFKKGLSSYLHTYQYSNTVYLDLWEHLQKAVNQQTAVQPPATVRTIMDRWILQMGFPVITVNTNTGEISQKHFLLDSKSNVTRPSEFNYIWIAPIPFLKSGQEDHYWLDVEKNQSAKFQTSSNEWILLNINVTGYYLVNYDENNWKKLQNQLQTDLSVIPVINRAQIIHDSFNLASAKMIPITLALDNTLFLVKEAEYMPWQAALSSLNYFTLMFDRSEVYGPMKRYLKKQVTPLFFYFQNRTNNWVNRPPTLMEQYNEINAISTACSSGLKECRDLVVELYSQWMKNPNNNTIHPNLRSTVYCNAIAFGGEEEWNFAWEQFRNATLVNEADKLRSALACSKDVWILNRYLSYTLNPDYIRKQDTTSTIISIASNVAGHPLVWDFVRSNWKKLFENYGGGSFSFANLIQGVTRRFSSEFELQQLEQFKADNSATGFGTGTRALEQALEKTRANIDWVKENKDAVFKWFTENSS
modifications: full-length
Average logFC: 1.247
M1-1 Log2 Median Normalized: 1.246
M1-2 Log2 Median Normalized: 1.528
M2-1 Log2 Median Normalized: 1.2875
M2-2 Log2 Median Normalized: 0.807
change: up

B5: Q00623 (protein, UniProt Q00623 1-264, looked up)
chain: MKAVVLAVALVFLTGSQAWHVWQQDEPQSQWDKVKDFANVYVDAVKDSGRDYVSQFESSSLGQQLNLNLLENWDTLGSTVSQLQERLGPLTRDFWDNLEKETDWVRQEMNKDLEEVKQKVQPYLDEFQKKWKEDVELYRQKVAPLGAELQESARQKLQELQGRLSPVAEEFRDRMRTHVDSLRTQLAPHSEQMRESLAQRLAELKSNPTLNEYHTRAKTHLKTLGEKARPALEDLRHSLMPMLETLKTQVQSVIDKASETLTAQ
modifications: full-length
Average logFC: −2.027
M1-1 Log2 Median Normalized: −1.311
M1-2 Log2 Median Normalized: −2.229
M2-1 Log2 Median Normalized: −2.6175
M2-2 Log2 Median Normalized: −1.952
change: down

B6: P70429 (protein, UniProt P70429 1-414, looked up)
chain: MSEQSICQARASVMVYDDTSKKWVPIKPGQQGFSRINIYHNTASSTFRVVGVKLQDQQVVINYSIVKGLKYNQATPTFHQWRDARQVYGLNFASKEEATTFSNAMLFALNIMNSQEGGPSTQRQVQNGPSPEEMDIQRRQVMEQQHRQESLERRISATGPILPPGHPSSAASTTLSCSGPPPPPPPPVPPPPTGSTPPPPPPLPAGGAQGTNHDESSASGLAAALAGAKLRRVQRPEDASGGSSPSGTSKSDANRASSGGGGGGLMEEMNKLLAKRRKAASQTDKPADRKEDESQTEDPSTSPSPGTRATSQPPNSSEAGRKPWERSNSVEKPVSSLLSRTPSVAKSPEAKSPLQSQPHSRVKPAGSVNDVGLDALDLDRMKQEILEEVVRELHKVKEEIIDAIRQELSGISTT
modifications: full-length
Average logFC: 1.275
M1-1 Log2 Median Normalized: 1.275
M1-2 Log2 Median Normalized: 1.519
M2-1 Log2 Median Normalized: 1.2085
M2-2 Log2 Median Normalized: 1.206
change: up

B7: P98063 (protein, UniProt P98063 1-991, looked up)
chain: MPGVARPPLPLLSLPLLLLLLLLPRAGRPLDLADYTYDLGEEDAPELLNYKDPCKAAAFLGDIALDEEDLRAFQVQQAAVLRQQTARRPSIKAAGNSSALGGQGTSGQPQRESRGRWRGRPRSRRAATSRPERVWPDGVIPFVIGGNFTGSQRAVFRQAMRHWEKHTCVTFLERTDEDSYIVFTYRPCGCCSYVGRRGGGPQAISIGKNCDKFGIVVHELGHVIGFWHEHTRPDRDRHVSIVRENIQPGQEYNFLKMEVQEVESLGETYDFDSIMHYARNTFSRGIFLDTIVPKYEVNGVKPSIGQRTRLSKGDIAQARKLYKCPACGETLQDSTGNFSSPEYPNGYSAHMHCVWRISVTPGEKIILNFTSMDLYRSRLCWYDYVEVRDGFWRKAPLRGRFCGGKLPEPIVSTDSRLWVEFRSSSNWVGKGFFAVYEAICGGDVKKDNGHIQSPNYPDDYRPSKVCIWRIQVSEGFHVGLTFQSFEIERHDSCAYDYLEVRDGHSESSNLIGRYCGYEKPDDIKSTSSRLWLKFVSDGSINKAGFAVNFFKEVDECSRPNRGGCEQRCLNTLGSYKCSCDPGYELAPDKRRCEAACGGFLTKLNGSITSPGWPKEYPPNKNCIWQLVAPTQYRISLQFDFFETEGNDVCKYDFVEVRSGLTADSKLHGKFCGSEKPEVITSQYNNMRVEFKSDNTVSKKGFKAHFFSDKDECSKDNGGCQQDCVNTFGSYECQCRSGFVLHDNKHDCKEAGCEHKVTSTSGTITSPNWPDKYPSKKECTWAISSTPGHRVKLTFVEMDIESQPECAYDHLEVFDGRDAKAPVLGRFCGSKKPEPVLATGNRMFLRFYSDNSVQRKGFQASHSTECGGQVRADVKTKDLYSHAQFGDNNYPGGVDCEWVIVAEEGYGVELVFQTFEVEEETDCGYDYIELFDGYDSTAPRLGRYCGSGPPEEVYSAGDSVLVKFHSDDTISKKGFHLRYTSTKFQDTLHSRK
modifications: full-length
Average logFC: 1.311
M1-1 Log2 Median Normalized: 1.296
M1-2 Log2 Median Normalized: 1.342
M2-1 Log2 Median Normalized: 1.2215
M2-2 Log2 Median Normalized: 1.383
change: up

B8: P97314 (protein, UniProt P97314 1-193, looked up)
chain: MPVWGGGNKCGACGRTVYHAEEVQCDGRSFHRCCFLCMVCRKNLDSTTVAIHDEEIYCKSCYGKKYGPKGYGYGQGAGTLNMDRGERLGIKPESAQPHRPTTNPNTSKFAQKYGGAEKCSRCGDSVYAAEKIIGAGKPWHKNCFRCAKCGKSLESTTLTEKEGEIYCKGCYAKNFGPKGFGYGQGAGALVHAQ
modifications: full-length
Average logFC: −1.204
M1-1 Log2 Median Normalized: −1.447
M1-2 Log2 Median Normalized: −1.021
M2-1 Log2 Median Normalized: −1.3045
M2-2 Log2 Median Normalized: −1.045
change: down

B9: P63158 (protein, UniProt P63158 1-215, looked up)
chain: MGKGDPKKPRGKMSSYAFFVQTCREEHKKKHPDASVNFSEFSKKCSERWKTMSAKEKGKFEDMAKADKARYEREMKTYIPPKGETKKKFKDPNAPKRPPSAFFLFCSEYRPKIKGEHPGLSIGDVAKKLGEMWNNTAADDKQPYEKKAAKLKEKYEKDIAAYRAKGKPDAAKKGVVKAEKSKKKKEEEDDEEDEEDEEEEEEEEDEDEEEDDDDE
modifications: full-length
Average logFC: −1.338
M1-1 Log2 Median Normalized: −1.875
M1-2 Log2 Median Normalized: −1.062
M2-1 Log2 Median Normalized: −1.2145
M2-2 Log2 Median Normalized: −1.339
change: down
